Assay [1] concerns the target Thermoanaerobacter tengcongensis RecO (Thermoanaerobacter tengcongensis MB4) (UniProt Q8RB48). Kind of assay: SPR; Biacore3000, 25°C; TTERecO amine-coupled to CM5 chip (4900 RU); TTERecR and mutants injected (0.0125-4 µM), 20 mM HEPES pH 7.4, 200 mM NaCl, 0.005% Tween 20; 1:1 Langmuir model; apparent KD. For orientation: In SPR one partner is held on a chip, and binding of the other changes the refractive index at the surface.

The target of assay [2] is TTERecR_(1-166) C-terminal deletion mutant (Thermoanaerobacter tengcongensis MB4) (UniProt Q8RDI4). Kind of assay: SEC; Superdex-200, 0.5 ml/min, 50 mM Tris-HCl pH 7.5, 300 mM NaCl, 200 µg/ml, absorbance at 280 nm. (In general: Size exclusion chromatography separates by hydrodynamic size, large species first.)
The target of assay [3] is TTERecR_(1-180) C-terminal deletion mutant (Thermoanaerobacter tengcongensis MB4) (UniProt Q8RDI4). The assay is described as above.
In assay [4] the target is TTERecR_(16-196) N-terminal deletion mutant (Thermoanaerobacter tengcongensis MB4) (UniProt Q8RDI4). The description is as above.
For assay [5], the target named is Thermoanaerobacter tengcongensis RecR, full-length (Thermoanaerobacter tengcongensis MB4) (UniProt Q8RDI4). As to the kind of experiment: SEC + AUC; SEC: Superdex-200, 0.5 ml/min, 50 mM Tris-HCl pH 7.5, 300 mM NaCl, 200 µg/ml; AUC: 20°C, 1 mg/ml in 5 mM Tris-HCl pH 7.5, 50 mM NaCl, 60 000 rpm (TTERecR, TTERecO) or 55 000 rpm (TTERecOR complex), SEDFIT.
The target of assay [6] is Thermoanaerobacter tengcongensis RecO (Thermoanaerobacter tengcongensis MB4) (UniProt Q8RB48). The description is as above.

One may read the stoichiometry N as the number of molecules, sites or subunits per partner or assembly. For “TTERecR_(1-166) C-terminal deletion mutant (from UniProt Q8RDI4 1-166) (domain or fragment)”, in assay [1], the Kd worked out at 359 nM. The stoichiometry N in assay [2] is 2.
With “TTERecR_(1-180) C-terminal deletion mutant (from UniProt Q8RDI4 1-180) (domain or fragment)”, the Kd in assay [1] came to 1480 nM. The same substance came in with a stoichiometry N in assay [3] of 2.
“TTERecR_(16-196) N-terminal deletion mutant (from UniProt Q8RDI4 16-196) (domain or fragment)” displayed a stoichiometry N in assay [4] of 2.
Regarding “Thermoanaerobacter tengcongensis RecR, full-length (from UniProt Q8RDI4 1-199) (natural protein)”, the Kd in assay [1] was 186 nM. The stoichiometry N in assay [5] is 2. Besides, the stoichiometry N (RecR per RecO) in assay [6] was determined as 2.
